Target: FLAG-GluK2 (UniProt P42260)
Experiment: co-IP; COS-7 cells transfected with combinations of FLAG-GluK2, Neto2 or Neto2Δ7 and GRIP(PDZ4-7)-myc; lysates immunoprecipitated with an anti-GluK2 antibody, western blot

UniProt P42260, sequence (P42260 32-908): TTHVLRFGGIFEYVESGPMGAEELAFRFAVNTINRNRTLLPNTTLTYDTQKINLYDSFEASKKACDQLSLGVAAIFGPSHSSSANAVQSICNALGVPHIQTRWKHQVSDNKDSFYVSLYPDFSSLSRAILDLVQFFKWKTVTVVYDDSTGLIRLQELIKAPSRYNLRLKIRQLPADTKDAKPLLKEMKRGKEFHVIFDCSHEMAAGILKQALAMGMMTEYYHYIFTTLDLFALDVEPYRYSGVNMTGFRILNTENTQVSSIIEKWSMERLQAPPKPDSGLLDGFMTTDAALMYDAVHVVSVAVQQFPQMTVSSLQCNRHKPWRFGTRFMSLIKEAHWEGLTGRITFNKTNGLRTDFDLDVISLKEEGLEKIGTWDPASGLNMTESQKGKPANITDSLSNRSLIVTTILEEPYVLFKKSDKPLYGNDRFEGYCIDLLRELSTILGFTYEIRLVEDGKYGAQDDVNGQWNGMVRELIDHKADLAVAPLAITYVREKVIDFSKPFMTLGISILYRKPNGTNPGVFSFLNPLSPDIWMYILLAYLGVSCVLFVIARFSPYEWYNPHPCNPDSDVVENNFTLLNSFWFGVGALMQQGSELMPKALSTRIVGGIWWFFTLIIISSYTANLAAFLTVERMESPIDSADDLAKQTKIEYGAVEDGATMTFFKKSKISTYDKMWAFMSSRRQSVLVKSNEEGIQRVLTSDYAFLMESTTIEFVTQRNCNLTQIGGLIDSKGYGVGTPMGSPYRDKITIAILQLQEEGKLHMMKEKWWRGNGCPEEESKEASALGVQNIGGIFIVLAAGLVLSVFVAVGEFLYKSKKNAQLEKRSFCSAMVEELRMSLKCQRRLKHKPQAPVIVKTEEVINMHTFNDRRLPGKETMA

- amount coimmunoprecipitated with GluK2 when Neto2 is coexpressed, percent of signal in the absence of Neto2 (% of signal in the absence of Neto2): 250
- amount coimmunoprecipitated with GluK2 when Neto2Δ7 is coexpressed, percent of signal in the absence of Neto2 (% of signal in the absence of Neto2): 103
Substance: C-terminal myc-tagged GRIP(PDZ4-7) (domain or fragment)

From PMC3516556
